Publication PMC7181697

Legend:
REV7^K129A (human) = REV7^K129A (human) (UniProt Q9UI95); assay: ITC; in the context of MBP-SHLD2(1-60) (Supplementary Fig. 5a, b)
MBP-SHLD2(1–60) (human) = MBP-SHLD2(1–60) (human) (UniProt Q86V20); assay: ITC; ITC200, 25 °C, 20 mM Tris pH 8.0, 150 mM NaCl, 1% glycerol, 1 mM TCEP; one set of sites model
Chain of MBP-SHLD2(1–60) (human) (Q86V20 1-60): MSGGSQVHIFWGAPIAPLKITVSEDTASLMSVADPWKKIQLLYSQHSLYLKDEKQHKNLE

Chain of REV7^K129A (human) (Q9UI95 whole entry K129A): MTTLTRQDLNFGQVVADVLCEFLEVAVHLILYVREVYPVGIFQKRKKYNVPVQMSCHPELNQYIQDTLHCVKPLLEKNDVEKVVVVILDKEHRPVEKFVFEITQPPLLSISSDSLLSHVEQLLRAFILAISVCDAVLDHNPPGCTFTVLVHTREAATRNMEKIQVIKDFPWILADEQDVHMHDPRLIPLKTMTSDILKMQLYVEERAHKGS

Row | Kd (REV7^K129A (human)) [nM] | Kd (MBP-SHLD2(1–60) (human)) [nM] | Substance
1 | 410 | – | REV7^K129A-SHLD3(1–82) (from UniProt Q9UI95 1-211; Q6ZNX1 1-82) (complex)
2 | – | 59 | REV7^W171A-SHLD3(1–82) (from UniProt Q9UI95 1-211; Q6ZNX1 1-82) (complex)
3 | – | 600 | REV7^Y63A-SHLD3(1–82) (from UniProt Q9UI95 1-211; Q6ZNX1 1-82) (complex)
